Measurements: FireProtDB (doi:10.1016/s0014-5793(99)00158-1)

B1: Barstar, P11540 (parent)
chain: MKKAVINGEQIRSISDLHQTLKKELALPEYYGENLDALWDCLTGWVEYPLVLEWRQFEQSKQLTENGAESVLQVFREAKAEGCDITIILS

Variants of: B1
Conditions: Bacillus amyloliquefaciens; pH 6.2; Thermal; DSC; Na-acetate 10 mM; NaCl 0.05 M; reversible: yes; structure 1BTA; whole UniProt chain shown

Variant: C41A
- Tm: 74.1 °C
- unfolding enthalpy (calorimetric): 51 kcal/mol
- unfolding enthalpy (van 't Hoff): 73 kcal/mol

Variant: C41A C83A
- Tm: 73.6 °C
- unfolding enthalpy (calorimetric): 73 kcal/mol
- unfolding enthalpy (van 't Hoff): 71 kcal/mol

Variant: C83A
- Tm: 71.9 °C
- unfolding enthalpy (calorimetric): 49 kcal/mol
- unfolding enthalpy (van 't Hoff): 68 kcal/mol
